The values below come from publication doi:10.1101/2021.05.06.442907.

The assay has as its target actin filaments (UniProt P68135).

Consider “Chara braunii myosin XI-1 motor domain construct without IQ motifs (domain or fragment)”, for which the Vmax of actin-activated ATPase activity, 25 °C (Pi s^−1 head^−1) was found to be 410.
